Test results reported in patent publication US20160215061A1.

Target: recombinant mouse FcγRIIB expressed in NS0 cells (mouse) (UniProt P08101)
Assay: SPR (Biacore); capture sample on chip, rmFcgRIIB (NSO) injected; reference Herceptin

Sequence of recombinant mouse FcγRIIB expressed in NS0 cells (mouse) (P08101 40-207 limits assumed): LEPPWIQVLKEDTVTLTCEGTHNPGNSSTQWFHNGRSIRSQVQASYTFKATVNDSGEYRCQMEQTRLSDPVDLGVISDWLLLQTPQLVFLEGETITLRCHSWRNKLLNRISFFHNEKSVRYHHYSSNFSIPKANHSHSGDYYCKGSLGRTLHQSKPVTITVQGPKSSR

F243A/V264A Fc (SEQ ID NO: 7) (from UniProt P0DOX5 218-448)
Fold Increase in RU vs WT IgG1: 0.5 fold
